According to patent publication US20080044360A1 (COLLAGEN MEDICAL, published 2008):
Bridge positions count the residues as written; N and C are the ends. Square brackets hold non-standard residues; d marks the D form. Primed or numbered codes have the meaning given here. Ends that are not written are not given here. Glu‑DTPA‑Gd = N-terminal Glu-DTPA-Gd chelate (gadolinium DTPA complex on glutamic acid); Glu‑DTPA‑Gd″ = N-terminal chelate: Glu-DTPA-Gd (glutamic acid–DTPA gadolinium chelate); Glu‑DTPA‑Gd(3) = N-terminal gadolinium chelate Glu-DTPA-Gd; PEG(2O) = not defined here

B1: SEQ ID NO 161 (peptide)
peptide: YHACYQAGCW[dI]W
modifications: disulfide 4-9 (inferred); not fully specified (C-terminus); printed as YHACYQAGCWiW
notes: cyclic, disulfide
B2: SEQ ID NO 157 (peptide)
peptide: YHACY[dQ]AGCWIW
modifications: disulfide 4-9 (inferred); not fully specified (C-terminus); printed as YHACYqAGCWIW
notes: cyclic, disulfide; also called YHACYqAGCWIW
B3: SEQ ID NO 158 (peptide)
peptide: YHACYQ[dA]GCWIW
modifications: disulfide 4-9 (inferred); not fully specified (C-terminus); printed as YHACYQaGCWIW
notes: cyclic, disulfide; also called YHACYQaGCWIW
B4: SEQ ID NO 156 (peptide)
peptide: YHAC[dY]QAGCWIW
modifications: disulfide 4-9 (inferred); not fully specified (C-terminus); printed as YHACyQAGCWIW
notes: cyclic, disulfide; also called YHACyQAGCWIW
B5: SEQ ID NO 160 (peptide)
peptide: YHACYQAGC[dW]IW
modifications: disulfide 4-9 (inferred); not fully specified (C-terminus); printed as YHACYQAGCwIW
notes: cyclic, disulfide
B6: SEQ ID NO 162 (peptide)
peptide: YHACYQAGCWI[dW]
modifications: disulfide 4-9 (inferred); not fully specified (C-terminus); printed as YHACYQAGCWIw
notes: cyclic, disulfide
B7: Compound ID 1023 (peptide)
peptide: {Glu‑DTPA‑Gd″}-GGDWTCVGDHKTWKCNFH-NH2
modifications: disulfide 6-15 (inferred)
notes: N-terminal G-G linker
B8: SEQ ID NO 196 (peptide)
peptide: WWTCHMTWSGQWDSCKWH-NH2
modifications: disulfide 4-15 (inferred); not fully specified (N-terminus); also: Gd chelated by DTPA
B9: Compound ID 1026 (peptide)
peptide: {Glu‑DTPA‑Gd″-PEG(2O)}-GQWTCSGDEYTWHCNY[dE]-NH2
modifications: disulfide 5-14 (inferred); reading uncertain
notes: linker -PEG(2O)-G- on the N-terminus
B10: Compound ID 1020 (peptide)
peptide: {Glu‑DTPA‑Gd}-WWTCHMTWSGQWDSCKWH-NH2
modifications: disulfide 4-15 (inferred)
B11: Compound ID 1021 (peptide)
peptide: {Glu‑DTPA‑Gd}-GQWTCSGDEYTWHCNYE
modifications: disulfide 5-14 (inferred); not fully specified (C-terminus)
notes: N-terminal G linker
B12: Compound ID 1024 (peptide)
peptide: {Glu‑DTPA‑Gd(3)}-PPQWHCTTRFPHHYCLYG-NH2
modifications: disulfide 6-15 (inferred)
notes: N-terminal P-P linker
B13: Compound ID 1022 (peptide)
peptide: {Glu‑DTPA‑Gd}-GQWHCTTRFPHHYCLYG
modifications: disulfide 5-14 (inferred); not fully specified (C-terminus)
notes: N-terminal G linker
B14: SEQ ID NO 195 (peptide)
peptide: WWGCRQGTGEHWSHCMWF
modifications: disulfide 4-15 (inferred); not fully specified (N-terminus, C-terminus); also: Gd chelated by DTPA at both ends

The binders below were run against T1, human collagen type I, acid soluble, extracted from placenta (Sigma C7774) (human, UniProt P02452 162-1218; P08123 80-1119) (assay: dried collagen assay).
T1 construct: tissue extract, gelled and dried in wells; also called dried human collagen; h-Collagen
T1 sequence (P02452 162-1218 limits assumed, chain 1 of 2): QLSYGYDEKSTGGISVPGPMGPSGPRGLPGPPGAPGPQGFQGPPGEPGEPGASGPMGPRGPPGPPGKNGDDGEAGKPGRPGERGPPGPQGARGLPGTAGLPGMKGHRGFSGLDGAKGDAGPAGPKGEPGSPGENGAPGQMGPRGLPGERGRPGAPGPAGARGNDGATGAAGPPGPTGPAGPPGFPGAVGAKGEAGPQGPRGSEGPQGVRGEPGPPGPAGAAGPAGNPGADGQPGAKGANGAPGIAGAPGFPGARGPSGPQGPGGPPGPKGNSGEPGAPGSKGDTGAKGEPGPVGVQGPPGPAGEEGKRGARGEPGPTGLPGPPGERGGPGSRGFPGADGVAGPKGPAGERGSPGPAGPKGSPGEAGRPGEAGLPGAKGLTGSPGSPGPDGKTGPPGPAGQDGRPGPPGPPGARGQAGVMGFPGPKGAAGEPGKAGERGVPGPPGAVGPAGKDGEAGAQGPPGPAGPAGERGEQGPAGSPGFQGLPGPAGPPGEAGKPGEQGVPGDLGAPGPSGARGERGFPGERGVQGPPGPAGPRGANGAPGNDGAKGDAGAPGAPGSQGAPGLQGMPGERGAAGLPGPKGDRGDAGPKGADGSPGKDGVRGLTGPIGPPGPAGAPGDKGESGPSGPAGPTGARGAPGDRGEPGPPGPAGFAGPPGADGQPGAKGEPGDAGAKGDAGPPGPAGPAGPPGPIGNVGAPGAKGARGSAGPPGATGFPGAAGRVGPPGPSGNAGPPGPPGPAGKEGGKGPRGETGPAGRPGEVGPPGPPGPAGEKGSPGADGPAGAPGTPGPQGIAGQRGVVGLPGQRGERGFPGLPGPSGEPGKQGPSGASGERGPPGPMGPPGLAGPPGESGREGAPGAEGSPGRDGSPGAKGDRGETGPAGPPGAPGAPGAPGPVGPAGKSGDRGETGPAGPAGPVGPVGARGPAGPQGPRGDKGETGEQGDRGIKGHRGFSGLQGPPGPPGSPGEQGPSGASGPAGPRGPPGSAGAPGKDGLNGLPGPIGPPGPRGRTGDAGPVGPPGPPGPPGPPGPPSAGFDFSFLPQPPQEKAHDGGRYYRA
T1 sequence (P08123 80-1119 limits assumed, chain 2 of 2): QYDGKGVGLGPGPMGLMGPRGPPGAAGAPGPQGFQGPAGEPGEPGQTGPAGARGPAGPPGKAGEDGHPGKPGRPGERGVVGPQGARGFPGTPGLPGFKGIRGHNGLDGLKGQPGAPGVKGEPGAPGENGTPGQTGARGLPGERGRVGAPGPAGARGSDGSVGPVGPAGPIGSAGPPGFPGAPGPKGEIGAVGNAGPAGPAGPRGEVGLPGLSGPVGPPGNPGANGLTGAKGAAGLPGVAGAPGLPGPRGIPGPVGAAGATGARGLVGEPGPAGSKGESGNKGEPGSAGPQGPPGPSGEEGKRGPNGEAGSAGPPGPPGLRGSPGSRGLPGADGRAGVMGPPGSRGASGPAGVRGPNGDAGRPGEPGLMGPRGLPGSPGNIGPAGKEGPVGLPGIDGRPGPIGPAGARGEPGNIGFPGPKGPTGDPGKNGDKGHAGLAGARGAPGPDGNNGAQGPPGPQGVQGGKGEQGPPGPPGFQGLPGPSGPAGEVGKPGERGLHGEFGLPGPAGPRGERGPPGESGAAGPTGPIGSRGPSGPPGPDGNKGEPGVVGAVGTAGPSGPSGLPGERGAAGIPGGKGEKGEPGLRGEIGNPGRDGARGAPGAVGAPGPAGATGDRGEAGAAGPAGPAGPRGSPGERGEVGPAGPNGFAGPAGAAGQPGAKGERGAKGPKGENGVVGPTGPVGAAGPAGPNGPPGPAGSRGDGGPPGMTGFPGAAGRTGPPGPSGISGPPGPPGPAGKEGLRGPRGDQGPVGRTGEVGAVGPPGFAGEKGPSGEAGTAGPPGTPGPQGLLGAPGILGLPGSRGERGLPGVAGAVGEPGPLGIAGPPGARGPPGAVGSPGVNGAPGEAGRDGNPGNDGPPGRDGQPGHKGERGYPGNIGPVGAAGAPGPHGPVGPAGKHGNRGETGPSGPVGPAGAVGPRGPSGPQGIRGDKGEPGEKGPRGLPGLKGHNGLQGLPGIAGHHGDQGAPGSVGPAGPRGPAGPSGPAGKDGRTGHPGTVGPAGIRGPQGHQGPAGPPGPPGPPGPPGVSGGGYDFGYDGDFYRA
Procedure: (§1) An additional 90 μL is reserved in a HPLC glass vial as a measure of the total concentration.
In the case of B1, the “% bound” value is reported as 8%. B2 was tested, and the “% bound” value was 37%. For B3, the “% bound” value was 56%. B4 was tested, and the “% bound” value was 38%. In the case of B5, the “% bound” value is reported as 20%. B6 was tested, and the “% bound” value was 18%.

Each binder was assayed against T2, rat collagen, acid soluble, type I, rat tail (Upstate 08-115) (rat, UniProt P02454 152-1207; P02466 86-1125) (assay: dried collagen assay).
T2 construct: tissue extract, gelled and dried in wells; also called dried rat collagen
T2 sequence (P02454 152-1207, chain 1 of 2): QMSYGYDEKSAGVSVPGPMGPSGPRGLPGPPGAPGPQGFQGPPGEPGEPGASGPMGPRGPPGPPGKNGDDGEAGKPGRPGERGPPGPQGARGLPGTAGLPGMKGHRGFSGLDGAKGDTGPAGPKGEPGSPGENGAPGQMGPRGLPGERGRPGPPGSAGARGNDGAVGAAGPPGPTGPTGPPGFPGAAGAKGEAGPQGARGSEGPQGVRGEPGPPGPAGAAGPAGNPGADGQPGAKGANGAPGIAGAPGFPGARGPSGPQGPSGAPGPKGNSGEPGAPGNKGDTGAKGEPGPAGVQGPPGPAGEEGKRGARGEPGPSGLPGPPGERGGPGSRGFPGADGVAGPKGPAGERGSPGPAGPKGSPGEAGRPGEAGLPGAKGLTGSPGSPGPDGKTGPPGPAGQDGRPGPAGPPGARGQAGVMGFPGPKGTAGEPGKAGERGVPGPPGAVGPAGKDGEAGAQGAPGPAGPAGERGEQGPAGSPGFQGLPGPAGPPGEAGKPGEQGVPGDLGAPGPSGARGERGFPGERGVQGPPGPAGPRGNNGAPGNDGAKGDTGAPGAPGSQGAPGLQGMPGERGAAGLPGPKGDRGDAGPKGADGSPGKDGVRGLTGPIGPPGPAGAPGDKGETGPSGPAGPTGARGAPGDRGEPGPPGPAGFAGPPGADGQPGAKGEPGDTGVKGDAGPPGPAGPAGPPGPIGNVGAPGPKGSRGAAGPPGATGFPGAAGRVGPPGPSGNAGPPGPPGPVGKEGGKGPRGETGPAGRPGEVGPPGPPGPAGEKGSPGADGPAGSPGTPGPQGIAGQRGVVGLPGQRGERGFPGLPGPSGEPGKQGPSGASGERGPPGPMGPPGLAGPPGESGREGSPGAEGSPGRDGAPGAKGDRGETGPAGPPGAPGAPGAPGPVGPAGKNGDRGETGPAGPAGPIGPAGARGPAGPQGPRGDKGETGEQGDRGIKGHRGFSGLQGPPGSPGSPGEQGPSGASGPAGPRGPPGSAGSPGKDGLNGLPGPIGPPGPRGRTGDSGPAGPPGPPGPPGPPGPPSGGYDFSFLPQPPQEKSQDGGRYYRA
T2 sequence (P02466 86-1125, chain 2 of 2): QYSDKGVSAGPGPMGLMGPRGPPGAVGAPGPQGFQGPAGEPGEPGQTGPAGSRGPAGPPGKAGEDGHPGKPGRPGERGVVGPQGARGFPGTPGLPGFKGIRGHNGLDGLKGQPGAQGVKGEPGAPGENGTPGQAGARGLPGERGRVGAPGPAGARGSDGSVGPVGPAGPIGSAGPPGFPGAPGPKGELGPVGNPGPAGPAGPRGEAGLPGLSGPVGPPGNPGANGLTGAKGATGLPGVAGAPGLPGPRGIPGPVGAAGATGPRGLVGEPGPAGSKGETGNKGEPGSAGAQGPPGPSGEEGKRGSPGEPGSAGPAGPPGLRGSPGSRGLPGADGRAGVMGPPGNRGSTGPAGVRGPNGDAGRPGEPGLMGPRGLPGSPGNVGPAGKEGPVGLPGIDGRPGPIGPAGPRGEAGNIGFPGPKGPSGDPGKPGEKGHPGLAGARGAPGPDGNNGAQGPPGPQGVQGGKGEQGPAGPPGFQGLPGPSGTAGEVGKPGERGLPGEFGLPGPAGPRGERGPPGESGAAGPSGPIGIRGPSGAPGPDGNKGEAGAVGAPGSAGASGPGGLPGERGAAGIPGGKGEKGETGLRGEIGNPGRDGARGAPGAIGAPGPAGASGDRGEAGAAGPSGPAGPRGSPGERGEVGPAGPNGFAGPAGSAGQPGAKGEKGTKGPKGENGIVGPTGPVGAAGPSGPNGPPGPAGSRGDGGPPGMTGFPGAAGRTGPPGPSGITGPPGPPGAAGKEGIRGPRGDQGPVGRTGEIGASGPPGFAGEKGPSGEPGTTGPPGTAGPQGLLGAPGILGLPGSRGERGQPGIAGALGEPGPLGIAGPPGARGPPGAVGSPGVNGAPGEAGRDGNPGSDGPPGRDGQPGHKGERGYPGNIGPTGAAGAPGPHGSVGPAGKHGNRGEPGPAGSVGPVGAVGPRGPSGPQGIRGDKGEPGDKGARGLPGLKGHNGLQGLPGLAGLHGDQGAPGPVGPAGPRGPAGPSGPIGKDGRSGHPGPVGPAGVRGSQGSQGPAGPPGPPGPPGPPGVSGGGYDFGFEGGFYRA
Procedure: as §1
In the case of B1, the “% bound” value is reported as 10%. With B2 the “% bound” value was 35%. B3 was tested, and the “% bound” value was 66%. With B4 the “% bound” value was 48%. For B5, the “% bound” value was 12%. With B6 the “% bound” value was 14%.

What follows are binders tested against T1, human collagen type I, acid soluble, … (assay: % binding to collagen I).
B7 was tested, and the “% bound” value was 14%. In the case of B8, the “% bound” value is reported as 60%. B9 was tested, and the “% bound” value was 28%. For B10, the “% bound” value was 60%. In the case of B11, the “% bound” value is reported as 48%. B12 was tested, and the “% bound” value was 70%. For B13, the “% bound” value was 36%. B14 was tested, and the “% bound” value was 16%.

The binders below were run against T2, rat collagen, acid soluble, type I, rat … (assay: % binding to collagen I).
For B7, the “% bound” value was 12%. For B8, the “% bound” value was 34%. B10 was tested, and the “% bound” value was 34%. B11 was tested, and the “% bound” value was 13%. For B12, the “% bound” value was 55%. For B13, the “% bound” value was 38%. For B14, the “% bound” value was 9%.
